According to US20070026428A1:
Each block holds one molecule with its values, some of them ahead of it.

Tests used:
Test in all cases: cell-based or functional assay
[1] = molecular target: ced-3(p15)::nz, CED-3 small subunit p15 with the NZ anti-parallel leucine zipper at its C-terminus (C. elegans) (UniProt P42573)
[2] = molecular target: cz::ced-3(p15), CED-3 small subunit with the CZ leucine zipper at its N-terminus (opposite orientation) (C. elegans) (UniProt P42573)
[3] = molecular target: Caspase-3(p12)::nz, human Caspase-3 small subunit p12 with the NZ anti-parallel leucine zipper at its C-terminus (human) (UniProt P42574)

% GFP positive cells in L1 larvae, ced-3(n717) background [1]: 5.9% | % GFP positive cells in L1 larvae, ced-8(n1891) background [1]: 21.9% | % GFP positive cells in adults, ced-3(n717) background [1]: 5.1% | % GFP positive cells in adults, ced-8(n1891) background [1]: 4.5% | % GFP positive cells in adults, recCED-3(uIs37) [1]: 5.4%
Molecule: cz::ced-3(p17), CED-3 large subunit p17 with the CZ anti-parallel leucine zipper at its N-terminus (from UniProt P42573 222-374)
death of touch sensory neurons monitored by the loss of GFP fluorescence, extrachromosomal arrays [1]: > 60% | death of touch sensory neurons, integrated lines [1]: > 95%

Molecule: ced-3(p17)::nz, CED-3 large subunit with the NZ leucine zipper at its C-terminus (opposite orientation) (from UniProt P42573 222-374)
% GFP positive touch cells (surviving cells), zippers in the opposite orientation [2]: 96%

% GFP positive cells in adults, ced-3(n717) background [3]: 1% | % GFP positive cells in adults, recCaspase-3(uIs40) [3]: 0.9% | % of YFP positive HeLa cells with nuclear YFP (caspase-sensing EYFP vector) after doxycycline induction [3]: 30 to 40% | animals completely or partially paralyzed within three hours after induction of heat shock, hsp-16 and myo-3 promoters [3]: > 50% | animals completely paralyzed within 12 hours after heat shock, hsp-16 and myo-3 promoters [3]: 100%
B1: cz::Caspase-3(p17), human Caspase-3 large subunit p17 with the CZ anti-parallel leucine zipper at its N-terminus (protein, part only; not given: Exact insert limits, part only)
chain, part: GGSGMENTENSVDSKSIKNLEPKIIHGSESMDSGISLDNSYKMDYPEMGLCIIINNKNFHKSTGMTSRSGTDVDAANLRETFRNLKYEVRNKNDLTREEIVELMRDVSKEDHSKRSSFVCVLLSHGEEGIIFGTNGPVDLKKITNFFRGDRCRSLTGKPKLFIIQACRGTELDCGIETD
apoptotic death of touch sensory neurons in C. elegans, extrachromosomal arrays [3]: 80% | death of touch receptor neurons in C. elegans, integrated DNA [3]: 100% | killing of embryonically derived ALM and PLM touch neurons after heat shock in the embryo, hsp-16 and mec-18 promoters [3]: > 90% | paralysis of animals (death of body wall muscle cells) after heat shock, hsp-16 and myo-3 promoters [3]: > 90%
